For the assay, the target named is C-terminal His6-tagged VanA-type VanS^127-384 (cytoplasmic domain of the histidine kinase VanS) (UniProt Q06240). As to the kind of experiment: differential scanning fluorimetry. Background: In DSF a fluorescence change marks the thermal transition of the protein.

As a reminder, the Kd is the constant that tells how readily two partners part at equilibrium. A low value points to higher affinity.

Substance siamycin I (peptide) came in with a Kd of 38 µM.
As for sviceucin (peptide), the figure is 52 µM.

For the origin of these results see doi:10.1101/2024.07.30.605797.
